# Laboratory results: IntAct's records for PubMed 19262565
# B1: Histone-lysine N-methyltransferase SETD7 (Homo sapiens), Q8WTS6 (parent)
# chain: MDSDDEMVEEAVEGHLDDDGLPHGFCTVTYSSTDRFEGNFVHGEKNGRGKFFFFDGSTLEGYYVDDALQGQGVYTYEDGGVLQGTYVDGELNGPAQEYDTDGRLIFKGQYKDNIRHGVCWIYYPDGGSLVGEVNEDGEMTGEKIAYVYPDERTALYGKFIDGEMIEGKLATLMSTEEGRPHFELMPGNSVYHFDKSTSSCISTNALLPDPYESERVYVAESLISSAGEGLFSKVAVGPNTVMSFYNGVRITHQEVDSRDWALNGNTLSLDEETVIDVPEPYNHVSKYCASLGHKANHSFTPNCIYDMFVHPRFGPIKCIRTLRAVEADEELTVAYGYDHSPPGKSGPEAPEWYQVELKAFQATQQK
# Variants of: B1
# Conditions: with tf65_human RELA
row,effect of a mutation on the interaction,Variant
1,disrupting interaction,MDSDDEMVEEAVEGHLDDDGLPHGFCTVTYSSTDRFEGNFVHGEKNGRGKFFFFDGSTLEGYYVDDALQGQGVYTYEDGGVLQGTYVDGELNGPAQEYDTDGRLIFKGQYKDNIRHGVCWIYYPDGGSLVGEVNEDGEMTGEKIAYVYPDERTALYGKFIDGEMIEGKLATLMSTEEGRPHFELMPGNSVYHFDKSTSSCISTNALLPDPYESERVYVAESLISSAGEGLFSKVAVGPNTVMSFYNGVRITHQEVDSRDWALNGNTLSLDEETVIDVPEPYNHVSKYCASLGHKANASFTPNCIYDMFVHPRFGPIKCIRTLRAVEADEELTVAYGYDHSPPGKSGPEAPEWYQVELKAFQATQQK [H297A]
